The results in this text go back to patent US20140370568A1, “Specialized (iso)eugenol-4-O-methyltransferases (s-IEMTs) and Methods of Making and Using the Same” (Brookhaven Science Associates, LLC, priority 2013, published 2014).

Common to all, as to assay type: biochemical, C. breweri
Substrate in series [1]: COc1cc(/C=C/CO)cc(OC)c1O
Nature of the series: Enzyme kinetics of MOMT9-1 (4-O-methylation of phenolic substrates). The note with it: other: MOMT9-1. The text has this:
(§1) Further shaping of the substrate binding pocket targeting residues Thr-319, Ile-165, Leu-133 and Leu-143 by Iterative Saturation Mutagenesis using MOMT8-1 as the starting point lead to the generation of MOMT9-1 which carried all of the substitutions of MOMT8-1 and an additional substitution of Met for Thr at position 319. Thus MOMT9-1 is a specialized (iso)eugenol-4-O-methyltransferase (s-IEMT) having 6-fold higher specific activity with coniferyl alcohol as the substrate compared to its specific activity with sinapyl alcohol as substrate. The s-IEMT designated MOMT9-1 comprises a specialized (iso)eugenol-4-O-methyltransferase having the following substitutions: T133L/E165I/F175I/F166W/H169F/M26H/S30R/V33S/T319M where amine acid residue numbers correspond to those of SEQ ID NO. 1.
(§2) Each of the s-IEMTs was isolated following expression in bacterial cells of nucleic acid sequences encoding the enzymes. The isolated enzymes were analyzed for their substrate versatility, specificity and enzyme kinetics on various phenolic substrates.

Substrate in series [2]: COc1cc(/C=C/CO)ccc1O
The description is as above. The note with it: other: MOMT9-1.
Excerpt: as §1, §2

Substrate in series [3]: COc1cc(/C=C/CO)cc(OC)c1O
The series can be described thus: Enzyme kinetics of MOMT8-2 (4-O-methylation of phenolic substrates). As to conditions: other: MOMT8-2. How it is done:
as §2
(§3) Iso-synapyl alcohol is thought to have the potential to be incorporated into lignin. These two additional specialized IEMT's having eight amino acid substitutions are designated as follows and have the indicated substitutions:
(§4) The specific activity of the various m-IEMT (MOMT-5) and s-IEMTs (MOMT8-2 and MOMT8-3) are shown in Table 4 and enzyme kinetic analysis is shown in Table 5.

Substrate in series [4]: COc1cc(/C=C/CO)cc(O)c1O
Described as above. The note with it: other: MOMT8-2. How it is done: as §2, §3, §4

Substrate in series [5]: COc1cc(/C=C/CO)ccc1O
The description is as above. As to conditions: other: MOMT8-2. How it is done:
as §2, §3, §4

Substrate in series [6]: COc1cc(/C=C/CO)cc(OC)c1O
Nature of the series: Enzyme kinetics of MOMT8-3 (4-O-methylation of phenolic substrates). The note with it: other: MOMT8-3. On the procedure:
as §2, §3, §4

Substrate in series [7]: COc1cc(/C=C/CO)cc(O)c1O
The series is described as above. As to conditions: other: MOMT8-3. On the procedure: as §2, §3, §4

Substrate in series [8]: COc1cc(/C=C/CO)ccc1O
Described as above. As to conditions: other: MOMT8-3. How it is done: as §2, §3, §4

Substrate in series [9]: COc1cc(/C=C/CO)cc(OC)c1O
Nature of the series: Enzyme kinetics of MOMT-5 (4-O-methylation of phenolic substrates). The note with it: other: MOMT-5.
Excerpt: (§5) Starting with a modified (iso)eugenol-4-O-methyltransferase (m-IEMT) previously designated MOMT-5 having the five substitutions Leu for Thr at 133, Ile for Glu at 165, Ile for Phe at 175, Trp for Phe at 166 and Phe for His at 169 (T133L/E165I/F175I/F166W/H169F), where the amino acid residue numbers correspond to those for the C. breweri (iso)eugenol-4-O-methyltransferase protein (SEQ ID NO. 1), the synergistic effects of simultaneously modifying adjacent amino acids located in the substrate binding pocket have been explored. Specialized (iso)eugenol-4-O-methyltransferases (s-IEMTs) were generated that have relatively little activity on sinapyl alcohol compared to activity on p-coniferyl alcohol. Some species of s-IEMT have enhanced activity toward 4-O-methylation of ferulic acid. Additional species of s-IEMT have the capacity to generate iso-sinapyl alcohol. These s-IEMTs are useful for altering lignin precursors in plants, altering lignin composition in plants, and for producing potentially useful chemicals and chemical feedstock in plants as well as in different heterologous expression systems. […]
as §2, §4

Substrate in series [10]: COc1cc(/C=C/CO)cc(O)c1O
The series is described as above. The note with it: other: MOMT-5.
Excerpt: as §5, §2, §4

Substrate in series [11]: COc1cc(/C=C/CO)ccc1O
The description is as above. As to conditions: other: MOMT-5.
Excerpt: as §5, §2, §4

Substrate in series [12]: COc1cc(/C=C/CO)cc(OC)c1O
Nature of the series: Enzyme kinetics of MOMT8-1 (4-O-methylation of phenolic substrates). As to conditions: other: MOMT8-1.
Excerpt: (§6) The first library examined amino acid substitutions at positions not previously explored, i.e., Met-26, Ser-30 and Val-33. The specialized (iso)eugenol-4-O-methyltransferase (s-IEMT) having all of the MOMT-5 substitutions and the additional substitution of His for Met at position 26, Arg for Ser at 30 and Ser for Val at 33 was designated MOMT8-1. The ratio of its activity for methylation of p-coniferyl alcohol versus methylation of p-sinapyl alcohol was 7.5:1 whereas the ratio of activity of MOMT-5 was about 4.2:1.
as §2

Substrate in series [13]: COc1cc(/C=C/CO)ccc1O
Described as above. The note with it: other: MOMT8-1.
Excerpt: as §6, §2

B1: C. breweri (iso)eugenol-4-O-methyltransferase (SEQ ID NO. 1) variant MOMT9-1, T133L/E165I/F175I/F166W/H169F/M26H/S30R/V33S/T319M (Clarkia breweri; … (protein)
chain: STGNAEIQIIPTHSSDEEANLFAHQLARAASLPMALKAAIELDVLEIMAKSVPPSGYISPAEIAAQLPTTNPEAPVMLDRVLRLLASYSVVTYTLRELPSGKVERLYGLAPVCKFLTKNEDGVSLAPFLLLATDKVLLEPWFYLKDAILEGGIPFNKAYGMNIWDYFGTDHRINKVFNKGMSSNSTITMKKILEMYNGFEGLTTIVDVGGGTGAVASMIVAKYPSINAINFDLPHVIQDAPAFSGVEHLGGDMFDGVPKGDAIFIKWICHDWSDEHCLKLLKNCYAALPDHGKVIVAEYILPPSPDPSIATKVVIHMDALMLAYNPGGKERTEKEFQALAMASGFRGFKVASCAFNTYVMEFLKTA
The Km is the concentration of substrate that gives half-maximal velocity. Broadly, the Vmax is the top rate of the reaction or transport when substrate is in excess. In general, kcat refers to the maximal rate divided by the concentration of active sites. Consider B1, for which, in series [1], the Km worked out at 109.5 ± 4.0 µM, the Vmax was 24.2 ± 0.3 nmol/mg/min and the kcat was determined as 0.017 ± 0.0002 s⁻¹. In addition, in [2], the Km was found to be 16.1 ± 1.4 µM, the Vmax worked out at 88.4 ± 1.7 nmol/mg/min and the turnover number (kcat) turned out to be 0.063 ± 0.001 s⁻¹.

B2: C. breweri (iso)eugenol-4-O-methyltransferase (SEQ ID NO. 1) variant MOMT8-2, T133L/E165I/F175I/F166W/H169F/M26S/S30F/V33Y (Clarkia breweri; … (protein)
chain: STGNAEIQIIPTHSSDEEANLFASQLAFAAYLPMALKAAIELDVLEIMAKSVPPSGYISPAEIAAQLPTTNPEAPVMLDRVLRLLASYSVVTYTLRELPSGKVERLYGLAPVCKFLTKNEDGVSLAPFLLLATDKVLLEPWFYLKDAILEGGIPFNKAYGMNIWDYFGTDHRINKVFNKGMSSNSTITMKKILEMYNGFEGLTTIVDVGGGTGAVASMIVAKYPSINAINFDLPHVIQDAPAFSGVEHLGGDMFDGVPKGDAIFIKWICHDWSDEHCLKLLKNCYAALPDHGKVIVAEYILPPSPDPSIATKVVIHTDALMLAYNPGGKERTEKEFQALAMASGFRGFKVASCAFNTYVMEFLKTA
The kcat/Km is the turnover number divided by the Michaelis constant. Regarding B2, in series [3], the Michaelis-Menten constant (Km) was found to be 35.2 ± 9.8 µM, the maximal velocity (Vmax) came out at 0.0379 µmol/min/mg, the turnover number (kcat) turned out to be 0.027 ± 0.002 s⁻¹ and the kcat/Km worked out at 767 M⁻¹ s⁻¹. In addition, in [4], the Michaelis constant (Km) worked out at 57.9 ± 13.0 µM, the maximal velocity (Vmax) was 0.123 µmol/min/mg, the kcat turned out to be 0.088 ± 0.006 s⁻¹ and the kcat/Km came out at 1520 M⁻¹ s⁻¹. Further, in series [5], the Km was 15.9 ± 1.7 µM, the maximal velocity (Vmax) came out at 0.0322 µmol/min/mg, the kcat came to 0.023 ± 0.001 s⁻¹ and the kcat/Km was determined as 1450 M⁻¹ s⁻¹.

B3: C. breweri (iso)eugenol-4-O-methyltransferase (SEQ ID NO. 1) variant MOMT8-3, T133L/E165I/F175I/F166W/H169F/M26S/S30F/V33G (Clarkia breweri; … (protein)
chain: STGNAEIQIIPTHSSDEEANLFASQLAFAAGLPMALKAAIELDVLEIMAKSVPPSGYISPAEIAAQLPTTNPEAPVMLDRVLRLLASYSVVTYTLRELPSGKVERLYGLAPVCKFLTKNEDGVSLAPFLLLATDKVLLEPWFYLKDAILEGGIPFNKAYGMNIWDYFGTDHRINKVFNKGMSSNSTITMKKILEMYNGFEGLTTIVDVGGGTGAVASMIVAKYPSINAINFDLPHVIQDAPAFSGVEHLGGDMFDGVPKGDAIFIKWICHDWSDEHCLKLLKNCYAALPDHGKVIVAEYILPPSPDPSIATKVVIHTDALMLAYNPGGKERTEKEFQALAMASGFRGFKVASCAFNTYVMEFLKTA
In the case of B3, in [6], the Michaelis constant (Km) came to 35.9 ± 9.8 µM, the maximal velocity (Vmax) is 0.0515 µmol/min/mg, the catalytic constant (kcat) is 0.036 ± 0.003 s⁻¹ and the kcat/Km came out at 1000 M⁻¹ s⁻¹. Also, in series [7], the Michaelis constant (Km) stood at 65.4 ± 13.0 µM, the maximum rate (Vmax) came to 0.145 µmol/min/mg, the turnover number (kcat) turned out to be 0.104 ± 0.006 s⁻¹ and the specificity constant (kcat/Km) worked out at 1590 M⁻¹ s⁻¹. In series [8], the Michaelis constant (Km) came to 23.3 ± 2.4 µM, the Vmax was found to be 0.0735 µmol/min/mg, the catalytic constant (kcat) was 0.053 ± 0.001 s⁻¹ and the catalytic efficiency (kcat/Km) turned out to be 2270 M⁻¹ s⁻¹.

B4: C. breweri (iso)eugenol-4-O-methyltransferase (SEQ ID NO. 1) variant MOMT-5, T133L/E165I/F175I/F166W/H169F (Clarkia breweri; E165I/F166W/F175I/H169F/T133L) (protein)
chain: STGNAEIQIIPTHSSDEEANLFAMQLASAAVLPMALKAAIELDVLEIMAKSVPPSGYISPAEIAAQLPTTNPEAPVMLDRVLRLLASYSVVTYTLRELPSGKVERLYGLAPVCKFLTKNEDGVSLAPFLLLATDKVLLEPWFYLKDAILEGGIPFNKAYGMNIWDYFGTDHRINKVFNKGMSSNSTITMKKILEMYNGFEGLTTIVDVGGGTGAVASMIVAKYPSINAINFDLPHVIQDAPAFSGVEHLGGDMFDGVPKGDAIFIKWICHDWSDEHCLKLLKNCYAALPDHGKVIVAEYILPPSPDPSIATKVVIHTDALMLAYNPGGKERTEKEFQALAMASGFRGFKVASCAFNTYVMEFLKTA
B4: in [9], the Michaelis constant (Km) amounted to 14.7 ± 2.3 µM, the maximum rate (Vmax) was determined as 46.6 ± 1.5 nmol/mg/min and the turnover number (kcat) came out at 0.033 ± 0.001 s⁻¹. In addition, in series [10], the Michaelis-Menten constant (Km) turned out to be 105.0 ± 11.2 µM, the maximal velocity (Vmax) is 0.101 µmol/min/mg, the turnover number (kcat) was 0.072 ± 0.003 s⁻¹ and the kcat/Km came out at 686 M⁻¹ s⁻¹. Also, in series [11], the Km stood at 11.4 ± 1.6 µM, the maximum rate (Vmax) was determined as 96.1 ± 3.8 nmol/mg/min and the catalytic constant (kcat) turned out to be 0.069 ± 0.009 s⁻¹.

B5: C. breweri (iso)eugenol-4-O-methyltransferase (SEQ ID NO. 1) variant MOMT8-1, T133L/E165I/F175I/F166W/H169F/M26H/S30R/V33S (Clarkia breweri; … (protein)
chain: STGNAEIQIIPTHSSDEEANLFAHQLARAASLPMALKAAIELDVLEIMAKSVPPSGYISPAEIAAQLPTTNPEAPVMLDRVLRLLASYSVVTYTLRELPSGKVERLYGLAPVCKFLTKNEDGVSLAPFLLLATDKVLLEPWFYLKDAILEGGIPFNKAYGMNIWDYFGTDHRINKVFNKGMSSNSTITMKKILEMYNGFEGLTTIVDVGGGTGAVASMIVAKYPSINAINFDLPHVIQDAPAFSGVEHLGGDMFDGVPKGDAIFIKWICHDWSDEHCLKLLKNCYAALPDHGKVIVAEYILPPSPDPSIATKVVIHTDALMLAYNPGGKERTEKEFQALAMASGFRGFKVASCAFNTYVMEFLKTA
Turning to B5, in [12], the Km came out at 26.3 ± 4.1 µM, the maximum rate (Vmax) stood at 8.5 ± 0.3 nmol/mg/min and the catalytic constant (kcat) was 0.006 ± 0.000 s⁻¹. Besides, in series [13], the Michaelis constant (Km) was 16.1 ± 1.3 µM, the Vmax amounted to 68.1 ± 1.6 nmol/mg/min and the kcat is 0.049 ± 0.001 s⁻¹.
